In JP2022028645A:

Experiments:
Test in all cases: SPR (Biacore T200), TYRP1 ECD-Fc captured by anti-PGLALA antibody, 1:1 Langmuir fit
[1] = target: Human TYRP1 extracellular domain (ECD), monomeric fusion to human Fc domain with knob-into-hole and PG LALA modifications and C-terminal Avi-tag (human) [IgG part: P01857]
[2] = target: Cynomolgus TYRP1 extracellular domain (ECD), monomeric fusion to human Fc domain with knob-into-hole and PG LALA modifications and C-terminal Avi-tag (cynomolgus monkey) [IgG part: P01857]
[3] = target: Mouse TYRP1 extracellular domain (ECD), monomeric fusion to human Fc domain with knob-into-hole and PG LALA modifications and C-terminal Avi-tag (mouse) [IgG part: P01857]

Substance 親TA99抗体 (parental TYRP1 antibody TA99) has a Kd [1] of 0.09 nM, a Kd [2] of 0.12 nM and a Kd [3] of 0.31 nM.
